{"source": "patent US20090253622A1", "about": "“USE OF TLR3 AGONISTS FOR THE TREATMENT OF NEURODEGENERATIVE DISORDERS” (Nederlandse Organisatie voor toegepast - …, priority 2006, published 2009)", "system": "human astrocytes", "assay": "cDNA bank screening: COS-7 transfectant supernatants on human astrocytes, CXCL8 release", "assay_type": "cell-based", "conditions": "COS-7 supernatant, 48 h", "protocol": "Cos-7 cells (25,000 cells per well in 96-well plates) were transfected for 5 h with 768 pools of cDNA derived from human brain tumours (5 pooled tumours including meningioma, oligodendroglioma, astrocytoma grades II and IV, and medulloblastoma; NCI CGAP Brn35; Invitrogen) using lipofectamine, after which cells were thoroughly washed. Transfection with green-fluorescent protein-encoding cDNA was used as an internal control for transfection efficiencies. After continued culture of the transfected cells for 48 h, 75 μL of each culture supernatant was harvested and added to cultured human astrocytes seeded at 1,000 cells per well in 75 μL. After 48 h of culture, supernatants were harvested and evaluated for CXCL8 release using ELISA. […]\nA cDNA bank derived from 5 pooled tumours including meningioma, oligodendroglioma, astrocytoma grades II and IV and medulloblastoma was used as a source of sequences potentially encoding an endogenous protein agonist for TLR3. The cDNAs were cloned into plasmid vectors promoting expression and secretion of the cDNA-encoded product by mammalian cells, and these plasmids were transfected into COS-7 cells and evaluated in a two-step approach. […] To monitor such an astrocyte response in this first stage, secretion of CXCL8 was evaluated since this is a sensitive marker for TLR3 activation in these and other cells (cf. FIGS. 9 and 10). […]"}
{"molecule": "clone F5: cDNA clone product with amino acid sequence identical to residues 44-149 of human stathmin (protein) DFSLEEIQKKLEAAEERRKSHEAEVLKQLAEKREHEKEVLQKAIEENNNFSKMAEEKITHKMEANKENREAQMAAKLERLREKDKHIEEVRKNKESKDPADETEAD", "values": [{"measurement": "CXCL8 secretion in astrocytes triggered by cDNA-encoded product", "result": "marked CXCL8 secretion"}]}
